In patent publication US20240400614A1, “CLEAVABLE PEPTIDES AND METHODS OF USE THEREOF” (Bright Peak Therapeutics AG, priority 2023, published 2024):
Square brackets hold non-standard residues; d marks the D form. Ends that are not written are not given here. Tyr(3-NO2) = N[C@@H](Cc1ccc(O)c([N+](=O)[O-])c1)C(=O)O; 2Abz = Nc1ccccc1C(=O)O

How the values were obtained:
Type in all cases: biochemical
MMP-9 = target: T1, MMP-9 (Homo sapiens, UniProt P14780); test: FRET peptide cleavage efficiency with MMP-9 (standard pH 7.5; also pH 6.5)
T1 construct: purchased SIGMA PF024

MMP-7 = target: T2, MMP-7 (Homo sapiens, UniProt P09237); test: FRET peptide cleavage efficiency with MMP-7 (standard pH 7.5; also pH 6.5)
T2 construct: purchased SIGMA CC1059
T2 sequence (P09237 95-267): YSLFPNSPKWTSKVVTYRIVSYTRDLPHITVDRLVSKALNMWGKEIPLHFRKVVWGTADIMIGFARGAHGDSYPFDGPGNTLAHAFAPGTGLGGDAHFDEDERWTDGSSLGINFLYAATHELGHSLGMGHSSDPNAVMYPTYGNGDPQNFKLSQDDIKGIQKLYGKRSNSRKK

matriptase = target: T3, matriptase (Homo sapiens, UniProt Q9Y5Y6); test: FRET peptide cleavage efficiency with matriptase
T3 construct: purchased R&D Systems 3946-SEB
T3 sequence (Q9Y5Y6 615-855 limits assumed): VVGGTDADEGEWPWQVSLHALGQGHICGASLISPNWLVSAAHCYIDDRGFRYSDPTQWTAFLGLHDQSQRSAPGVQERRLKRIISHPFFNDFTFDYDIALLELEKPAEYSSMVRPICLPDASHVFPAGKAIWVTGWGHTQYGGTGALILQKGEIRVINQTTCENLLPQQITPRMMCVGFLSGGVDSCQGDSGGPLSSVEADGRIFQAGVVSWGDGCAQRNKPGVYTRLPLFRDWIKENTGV

MMP-2 = target: T4, MMP-2 (Homo sapiens, UniProt P08253); test: FRET peptide cleavage efficiency with MMP-2
T4 construct: purchased SIGMA PF023
T4 sequence (P08253 110-660): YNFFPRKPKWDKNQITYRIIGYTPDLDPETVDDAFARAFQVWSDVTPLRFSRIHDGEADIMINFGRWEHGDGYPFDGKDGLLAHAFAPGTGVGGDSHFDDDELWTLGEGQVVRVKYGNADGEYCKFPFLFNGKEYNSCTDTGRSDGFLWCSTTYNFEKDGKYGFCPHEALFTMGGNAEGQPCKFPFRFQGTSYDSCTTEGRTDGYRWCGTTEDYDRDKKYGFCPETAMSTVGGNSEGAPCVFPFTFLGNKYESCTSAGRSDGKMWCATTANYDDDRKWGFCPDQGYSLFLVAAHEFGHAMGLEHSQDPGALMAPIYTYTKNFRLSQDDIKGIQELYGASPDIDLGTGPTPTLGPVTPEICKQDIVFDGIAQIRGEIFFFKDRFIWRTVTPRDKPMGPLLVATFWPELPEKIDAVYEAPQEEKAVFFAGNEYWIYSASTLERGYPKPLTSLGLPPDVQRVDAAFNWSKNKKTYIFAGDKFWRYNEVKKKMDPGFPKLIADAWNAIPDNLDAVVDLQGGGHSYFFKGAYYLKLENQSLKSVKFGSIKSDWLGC

uPA = uPA (Homo sapiens, UniProt P00749); test: FRET peptide cleavage efficiency with uPA
[1] = t = 15 min, standard conditions (Table 8)
[2] = t = 60 min, standard conditions (Table 8)
[3] = t = 120 min, standard conditions (Table 8)
[4] = t = 15 min, 200 uM linker, 1 ug/ml protease, 37° C., buffer B pH 9.0
[5] = t = 60 min, 200 uM linker, 1 ug/ml protease, 37° C., buffer B pH 9.0
[6] = 200 uM linker, 1 ug/ml protease, 37° C., buffer B pH 9.0
[7] = t = 15 min, 200 uM linker, 1 ug/ml protease, 37° C., buffer C pH 7.5
[8] = t = 60 min, 200 uM linker, 1 ug/ml protease, 37° C., buffer C pH 7.5
[9] = t = 120 min, 200 uM linker, 1 ug/ml protease, 37° C., buffer C pH 7.5
[10] = t = 15 min, 200 uM linker, 1 ug/ml protease, 37° C., buffer A pH 8.5
[11] = t = 60 min, 200 uM linker, 1 ug/ml protease, 37° C., buffer A pH 8.5
[12] = t = 120 min, 200 uM linker, 1 ug/ml protease, 37° C., buffer A pH 8.5

T1 sequence (P14780 94-707): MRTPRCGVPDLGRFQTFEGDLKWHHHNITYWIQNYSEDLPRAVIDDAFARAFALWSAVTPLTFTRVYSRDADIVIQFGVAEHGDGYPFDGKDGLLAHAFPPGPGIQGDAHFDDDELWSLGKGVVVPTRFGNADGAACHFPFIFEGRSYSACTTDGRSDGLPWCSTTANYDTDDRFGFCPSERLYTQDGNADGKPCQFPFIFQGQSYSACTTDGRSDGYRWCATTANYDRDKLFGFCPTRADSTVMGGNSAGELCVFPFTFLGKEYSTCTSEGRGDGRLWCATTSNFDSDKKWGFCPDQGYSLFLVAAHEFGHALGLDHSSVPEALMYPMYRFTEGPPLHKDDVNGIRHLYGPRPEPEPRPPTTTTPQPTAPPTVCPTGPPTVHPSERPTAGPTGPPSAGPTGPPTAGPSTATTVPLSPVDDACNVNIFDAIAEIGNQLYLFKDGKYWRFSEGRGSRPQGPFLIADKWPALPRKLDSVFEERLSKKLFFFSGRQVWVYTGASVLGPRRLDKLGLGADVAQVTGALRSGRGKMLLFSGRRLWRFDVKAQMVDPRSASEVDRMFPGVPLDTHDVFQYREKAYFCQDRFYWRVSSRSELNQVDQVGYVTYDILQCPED

| Sequence | % cleavage MMP-9 t = 15 min (MMP-9; t = 15 min (Table 9)) | % cleavage MMP-9 t = 60 min (MMP-9; t = 60 min (Table 9)) | % cleavage MMP-9 t = 120 min (MMP-9; t = 120 min (Table 9)) | % cleavage MMP-7 t = 15 min (MMP-7; t = 15 min (Table 9)) | % cleavage MMP-7 t = 60 min (MMP-7; t = 60 min (Table 9)) | % cleavage MMP-7 t = 120 min (MMP-7; t = 120 min (Table 9)) | % cleavage MMP-2 t = 15 min (MMP-2; t = 15 min (Table 9)) | % cleavage MMP-2 t = 60 min (MMP-2; t = 60 min (Table 9)) | % cleavage MMP-2 t = 120 min (MMP-2; t = 120 min (Table 9)) | % cleavage Matriptase t = 15 min (matriptase; pH 6.5, t = 15 min (Table 7)) | % cleavage Matriptase t = 60 min (matriptase; pH 6.5, t = 60 min (Table 7)) | % cleavage Matriptase t = 15 min (matriptase; [4]) | % cleavage Matriptase t = 60 min (matriptase; [5]) | % cleavage Matriptase t = 120 min (matriptase; [6]) | % cleavage MMP-2 t = 15 min (MMP-2; [7]) | % cleavage MMP-2 t = 60 min (MMP-2; [8]) | % cleavage MMP-2 t = 120 min (MMP-2; [9]) | % cleavage uPA t = 15 min (uPA; [10]) | % cleavage uPA t = 60 min (uPA; [11]) | % cleavage uPA t = 120 min (uPA; [12]) | other results |
| --- | --- | --- | --- | --- | --- | --- | --- | --- | --- | --- | --- | --- | --- | --- | --- | --- | --- | --- | --- | --- | --- |
| RGRKSPYMLQG ([2Abz]RGRKSPYMLQG[Tyr(3-NO2)]-NH2) [LNK037] | 46% | 100% | 100% | 19% | 63% | 88% | 28% | 70% | 89% | – | – | – | – | – | – | – | – | – | – | – | % cleavage MMP-9 t = 15 min (MMP-9; [1]): 46%; % cleavage MMP-9 t = 60 min (MMP-9; [2]): 100%; % cleavage MMP-9 t = 120 min (MMP-9; [3]): 100%; % cleavage MMP-7 t = 15 min (MMP-7; [1]): 19%; % cleavage MMP-7 t = 60 min (MMP-7; [2]): 63%; % cleavage MMP-7 t = 120 min (MMP-7; [3]): 88%; % cleavage Matriptase t = 15 min (matriptase; [1]): 90%; % cleavage Matriptase t = 60 min (matriptase; [2]): 100%; % cleavage Matriptase t = 120 min (matriptase; standard conditions (Table 8)): 100%; % cleavage MMP-2 t = 60 min (MMP-2; [2]): 70%; % cleavage MMP-2 t = 120 min (MMP-2; [3]): 89%; % vcleavage uPA t = 15 min (uPA; [1]): 0%; % cleavage uPA t = 60 min (uPA; [2]): 0%; % cleavage uPA t = 120 min (uPA; [3]): 0% |
| RQRRSPLGLAG ([2Abz]RQRRSPLGLAG[Tyr(3-NO2)]-NH2) [LNK010] | 76% | 99% | 100% | 15% | 49% | 78% | 67% | 100% | 100% | 90% | 100% | 98% | 94% | 91% | 64% | 99% | 99% | 0% | 1% | 2% | % cleavage Matriptase t = 15 min (matriptase; pH 7.5, t = 15 min (Table 7)): 100%; % cleavage Matriptase t = 60 min (matriptase; pH 7.5, t = 60 min (Table 7)): 100%; % cleavage MMP-2 t = 15 min (MMP-2; pH 6.5, t = 15 min (Table 7)): 63%; % cleavage MMP-2 t = 60 min (MMP-2; pH 6.5, t = 60 min (Table 7)): 100%; % cleavage MMP-2 t = 15 min (MMP-2; pH 7.5, t = 15 min (Table 7)): 66%; % cleavage MMP-2 t = 60 min (MMP-2; pH 7.5, t = 60 min (Table 7)): 100%; % cleavage uPA t = 60 min (uPA; pH 6.5, t = 60 min (Table 7)): 0%; % cleavage uPA t = 120 min (uPA; pH 6.5, t = 120 min (Table 7)): 0%; % cleavage uPA t = 60 min (uPA; pH 7.5, t = 60 min (Table 7)): 0%; % cleavage uPA t = 120 min (uPA; pH 7.5, t = 120 min (Table 7)): 0% |
| RGRRPLGLAG ([2Abz]RGRRPLGLAG[Tyr(3-NO2)]-NH2) [LNK049] | 56% | 100% | 100% | 1% | 4% | 8% | 89% | 100% | 100% | – | – | 16% | 70% | 100% | 89% | 100% | 100% | 0% | 0% | 0% | – |
| RGRRSGRAANLVRPLGYFGKL ([2Abz]RGRRSGRAANLVRPLGYFGKL[Tyr(3-NO2)]-NH2) [LNK059] | 39% | 100% | 100% | 0% | 0% | 0% | 77% | 100% | 100% | – | – | 76% | 100% | 100% | 77% | 100% | 100% | 67% | 100% | 100% | – |
| SGRVLRKAGPQPLVD ([2Abz]SGRVLRKAGPQPLVD[Tyr(3-NO2)]-NH2) [LNK003] | 22% | 72% | 93% | 19% | 62% | 86% | 7% | 34% | 59% | 48% | 93% | 96% | 91% | 88% | 8% | 38% | 65% | 3% | 10% | 20% | % cleavage Matriptase t = 15 min (matriptase; pH 7.5, t = 15 min (Table 7)): 98%; % cleavage Matriptase t = 60 min (matriptase; pH 7.5, t = 60 min (Table 7)): 100%; % cleavage MMP-2 t = 15 min (MMP-2; pH 6.5, t = 15 min (Table 7)): 5%; % cleavage MMP-2 t = 60 min (MMP-2; pH 6.5, t = 60 min (Table 7)): 39%; % cleavage MMP-2 t = 15 min (MMP-2; pH 7.5, t = 15 min (Table 7)): 6%; % cleavage MMP-2 t = 60 min (MMP-2; pH 7.5, t = 60 min (Table 7)): 28%; % cleavage uPA t = 60 min (uPA; pH 6.5, t = 60 min (Table 7)): 0%; % cleavage uPA t = 120 min (uPA; pH 6.5, t = 120 min (Table 7)): 0%; % cleavage uPA t = 60 min (uPA; pH 7.5, t = 60 min (Table 7)): 0%; % cleavage uPA t = 120 min (uPA; pH 7.5, t = 120 min (Table 7)): 0% |
